The text below walks through data of patent US20250127938A1, “THERAGNOSTIC FOLATE CONJUGATES” (Merck Patent GmbH, priority 2022, published 2025).

Data set [1] has as its target folate receptor-alpha (FR) (Homo sapiens, UniProt P15328). Particulars: background statement; cited from earlier work.
Data set [2] concerns the target T1, FR (folate receptor) on IGROV-1 cells (Homo sapiens, UniProt P15328).
T1 construct: FR-positive IGROV-1 cells (human ovarian carcinoma cell line); endogenous in cells; host or cells: IGROV-1 human ovarian carcinoma cells (provided by Dr. Gerrit Janssen, Free University Medical Center Amsterdam)
Put plainly: FR-binding affinity (KD) on FR-positive IGROV-1 cells. Particulars: 1 h at 4° C., average of 3 experiments. As for the experimental part: The determination of the KD values was performed as previously reported (Deberle, L. M. et al; Bioconj Chem 2021, 32, p. 1617). FR-positive IGROV-1 cells (human ovarian carcinoma cell line, kindly provided by Dr. […] Janssen, Free University Medical Center Amsterdam, The Netherlands) were seeded in 48-well plates (2.5×10^5 cells/well) in 500 μL FFRPMI medium with supplements. The cells were incubated at 37° C. and 5% CO2 to allow cell adhesion overnight. The experiment was performed on ice using ice-cold medium and buffer solutions. After removal of the supernatant, the cells were rinsed once with PBS prior to the addition of FFRPMI medium without supplements (450 μL/well). The respective folate radioconjugate of the disclosure (20 MBq/nmol) was added to each well at variable concentrations (in the range of 0.1 to 500 nM, 50 μL per well). […] The IGROV-1 tumor cells were incubated for 1 h at 4° C. on a shaker, followed by removal of the supernatants and rinsing the cells twice with PBS. After lysis of the cells with NaOH solution (1 M, aq., 500 μL), the samples were counted for activity in a γ-counter (Wallac Wizard 1480, Perkin Elmer). The counts per minute (cpm) of the specific binding (determined by subtracting the cpm of the unspecific binding from the cpm of total binding), were plotted against the molar concentration of the added folate radioconjugates of the disclosure. […]

Another data set concerns T2, human albumin.
T2 construct: tissue Stiftung Blutspende SRK Aargau-Solothurn, Switzerland; host or cells: human blood plasma
The experiment in a line: in vitro. In kind it is in vitro ADME. Particulars: plasma. As for the experimental part:
(§1) Albumin-binding properties were determined in mouse and human blood plasma. The albumin-binding properties of the folate radioconjugates of the disclosure in mouse blood plasma (Rockland Immunochemicals, Inc., USA) and human blood plasma (Stiftung Blutspende SRK Aargau-Solothurn, Switzerland) were determined using an ultrafiltration method (Deberle, L. M. et al., Molecules 2020, 25, (11)). The amount of serum albumin in mouse (MSA) and human (HSA) blood plasma was defined as 550 μM and 800 μM, respectively, based on measurements using a dry chemistry analyzer (DRI-CHEM 4000i, FUJIFILM, Japan). The folate radioconjugates of the disclosure (50 MBq/nmol, ca. 300 kBq, 0.006 nmol in 15 μL) were added to samples of mouse and human blood plasma (150 μL), followed by incubation of the samples at 37° C. for 30 min. The samples were loaded on Amicon centrifugal filters (cut-off of 10 kDa; Merck Millipore) followed by centrifugation (14,000 rcf, 30 min, 4° C.) to allow the separation of the plasma-bound from the plasma-unbound (free) fractions of each sample. The inserts of the filter devices were inverted and centrifuged at 200 rcf for 3 min to recover the protein-bound fraction. The activity of the protein-bound fraction as well as the activity in the filtrate and in the filter unit were measured separately in a gamma-counter (Perkin Elmer, Wallac Wizard 1480). The percentage of radioconjugate bound to mouse and human albumin, respectively, was set in relation to the total activity measured (Table 4).

The test system of another data set is T3, mouse albumin.
T3 construct: tissue Rockland Immunochemicals, Inc., USA; host or cells: mouse blood plasma
The experiment in a line: in vitro. In kind it is in vitro ADME. Particulars: plasma. The procedure:
as §1

Data set [3] can be described thus: Radiolytic stability of the radioconjugates (HPLC). In kind it is physicochemical. Particulars: room temperature, PBS pH 7.4, 100 MBq/500 μL, relative to value at t0. As for the experimental part: Radiolytic stability: After performing quality control of the radioconjugates (50 MBq/nmol) using HPLC (t0=0 h), the radioconjugates were diluted in PBS pH 7.4 to obtain an activity concentration of 100 MBq/500 μL. The radioconjugate dilutions were incubated at room temperature. The integrity of the radioconjugates was assessed after a 4 h and 24 h, respectively, using HPLC. The HPLC chromatograms were analyzed by determination of the peak area of the radiolabeled product, the released lutetium-177 as well as the degradation products of unknown structure. The quantity of the intact product was expressed as the percentage of the sum of integrated peak areas of the entire chromatogram and set into relation to the original value determined at to (radiochemical purity >95% set as 100%).

Data set [4] is classed as physicochemical. Particulars: pH 7.4. The procedure: The n-octanol/PBS distribution coefficients (log D values) were determined for each folate radioconjugate of the disclosure in order to assess their hydrophilic/hydrophobic properties. The log D values of the folate radioconjugates of the disclosure (50 MBq/nmol) were determined as previously reported, after dilution in PBS pH 7.4 to obtain an activity concentration of 10 MBq/500 μL. A sample of each radiofolate (ca. 0.5 MBq, 25 μL, 0.01 nmol) was added to a mixture of 1475 μL PBS pH 7.4 and 1500 μL n-octanol. The vials were vortexed vigorously for 1 min followed by centrifugation for 6 min at 2500 rpm for phase separation. An aliquot was taken from each phase and measured in a gamma-counter (Perkin Elmer, Wallac Wizard 1480). The distribution coefficients were calculated as the logarithm of the ratio of counts per minute (cpm) measured in the n-octanol phase relative to the cpm measured in the PBS phase. The results were listed as mean±SD of the data obtained from 3 independent experiments, each performed with five replicates.

T1 sequence (P15328 25-234): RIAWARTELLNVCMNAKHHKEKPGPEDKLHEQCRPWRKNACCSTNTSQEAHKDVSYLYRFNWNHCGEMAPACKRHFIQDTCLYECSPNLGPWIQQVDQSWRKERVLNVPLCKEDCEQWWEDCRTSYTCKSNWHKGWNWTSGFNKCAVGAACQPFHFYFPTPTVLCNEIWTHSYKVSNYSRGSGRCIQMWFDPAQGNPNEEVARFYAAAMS
folate receptor-alpha (FR), sequence (P15328 25-234, species assumed): as the sequence (P15328 25-234) above

As for `CN1c2c(nc(N)[nH]c2=O)NCC1CNc1ccc(C(=O)N[C@@H](CCC(=O)O)C(=O)O)cc1` (stereo partly shown) [5-methyltetrahydrofolic acid], the “FR affinity (KD)” value in data set [1] is “nanomolar range”.

One may read the Kd as the equilibrium constant for the complex coming apart. A low value points to a tighter complex. What is called fraction unbound is free concentration divided by total concentration. In general, logD refers to lipophilicity at a set pH, counting ionised and neutral species. Read a low logD as lower lipophilicity. As for `CN1c2c(nc(N)[nH]c2=O)NC[C@@H]1CNc1ccc(C(=O)N[C@@H](CCC(=O)N[C@@H](CCCCNC(=O)CN2CCN(CC(=O)O)CCN(CC(=O)O)CCN(CC(=O)O)CC2)C(=O)N[C@@H](CCCCNC(=O)CCCCc2ccc(I)cc2)C(=O)O)C(=O)O)cc1` [[^177Lu]Lu-6S-RedFol-24, metal not drawn], binding in data set [2] was put at a Kd of 4.6 nM. For the same molecule, the fraction unbound at 30 min, 0.036 µM with human albumin is 0.14; in the data set with mouse albumin, 0.26. Besides, the “Intact radiolabeled product [%]” value in data set [3] (4 h) and in data set [3] (24 h) was at least 99% each time. This molecule had a logD in data set [4] of -3.1 ± 0.1.

`CN1c2c(nc(N)[nH]c2=O)NC[C@H]1CNc1ccc(C(=O)N[C@@H](CCC(=O)N[C@@H](CCCCNC(=O)CN2CCN(CC(=O)O)CCN(CC(=O)O)CCN(CC(=O)O)CC2)C(=O)N[C@@H](CCCCNC(=O)CCCCc2ccc(I)cc2)C(=O)O)C(=O)O)cc1` [[^177Lu]Lu-6R-RedFol-24, metal not drawn] registered a Kd in data set [2] of 5.6 nM. Also, the fraction unbound at 30 min, 0.036 µM was 0.06 with human albumin and 0.27 in the data set with mouse albumin. Also, the “Intact radiolabeled product [%]” value in data set [3] (4 h) and in data set [3] (24 h) was at least 99% throughout. The same molecule returned a logD in data set [4] of -3.5 ± 0.2.
